Experimental data from the nanobody polyreactivity screen of Harvey et al. (2022).

Assay: yeast display, Sf9 membrane polyspecificity reagent, FACS + sequencing; frameworks hold sequencing errors
How it was run: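 Nanobodies from a synthetic yeast display library (Saccharomyces cerevisiae BJ5465), induced 36–48 hours with galactose, were stained 1 hour at 4 °C with 10% biotinylated, detergent-solubilized Sf9 membrane reagent, enriched on streptavidin microbeads, then FACS-sorted. Anti-HA (expression) and streptavidin (reagent binding) fluorescence set low and high (top ~1%) gates. Polyreactivity labels come from the gate of origin. Genes were colony-PCR amplified, MiSeq 2 × 250 sequenced and filtered by CDR length.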

Sequence	polyreactivity (PSR sort gate)
QVQLVESGGGLVQAGGSLRLSCAASGSIFRYYAMGWYRQAPGKERELVATISSSGGTTYYADSVKGRFTISRDNAKNTVYLQMNSLKPEETAVYYCAALWTWHVSYPVHEYDFWGQGTQVTVSS	low polyreactivity
QVQLVESGGGLVQAGGSLRLSCAASGSIFRYYAMVWYRQAPGKERELVAAISSGGNTKYADSVKGRFTISRDNAKNTVYLQRNSLKPADTAVYYCNADGKAGGDYDYWGQGTQVTVSS	low polyreactivity
QVQLVESGGGLVQAGGSLRLSCAASGSIFRYYTMGWYRQAPGKERELVAAISSRGGSTYYADSVKGRFTISRDNAKNTVYLQMNSLKPEDTAVYYCNVLVKRAYQYTYGVDYWGQGTQVTVSS	high polyreactivity
QVQLVESGGGLVQAGGSLRLSCAASGSIFRYYVMGWYRQAPGKERELVASISYSVGRTYYADSVKGRFTISRDNAKNTVYLQMNSLKPEDTAVYYCAADRYWPYYSAYYTSYRMDYWGQGTQVTVSS	high polyreactivity
QVQLVESGGGLVQAGGSLRLSCAASGSIFSAYAMGWYRQAPGKERELVAAISYGGGSTYYADSVKGRFTISRDNAKNTVYLQMNSLKAEDTAVYYCAAASSGEYGYWGQGTQVTVSS	low polyreactivity
QVQLVESGGGLVQAGGSLRLSCAASGSIFSAYSMGWYRQAPGKERELVAAISKSGSSTYYADSVKGRFTISRDNANNTVYFQMNSLKPEDTAVYYCAAKRAGPYGITKGMDYWGQGTQVSVSS	high polyreactivity
QVQLVESGGGLVQAGGSLRLSCAASGSIFSDNAMGWYRQAPGKERELVAAITYSGGRTSYADSVKGRFTISRDNAKNTVYLQMNSLKPEDTAVYYCAVGSHSRSSNSYYYWGQGTQVTVSS	low polyreactivity
QVQLVESGGGLVQAGGSLRLSCAASGSIFSDYAMGWYRQAPGEERELVAAINSGVSTSYADSVKGRFTISRDNAKNTVYLQMNSLKPEDTAVYYCAKDGSSPSPWYGGFGYWGQGTQVTVSS	low polyreactivity
QVQLVESGGGLVQAGGSLRLSCAASGSIFSDYAMGWYRQAPGKERELVAASTQSGGSTYADSLKGRFSISRDNAKNTVYLQMNSLKPEDTAVYYCADRHDKRRQYYVGQSAFDYWGQGTQVTVSS	low polyreactivity
QVQLVESGGGLVQAGGSLRLSCAASGSIFSDYTMGWYRQAPGKERELVAAISGIGGSTYYADSVKGRFTISRDNAKNTVYLQMNSLKPEDTAVYYCAADDYYYPYVSHDYWGQGTQVTVSS	low polyreactivity
QVQLVESGGGLVQAGGSLRLSCAASGSIFSDYVMGWSRQAPGKERELVATISRGGGSTFYADSVKGRFTISRDTAKNTVYLQMNSLKPEDTAVYYCAAPPGPSGAKYDYWGQGTQVTVSS	low polyreactivity
QVQLVESGGGLVQAGGSLRLSCAASGSIFSENTMGWYRQAPGKKRELVADITSGGSTNYADSVKGRFTISRDNAKNTVYLQMNSLKPEDTAVYYCAADYNGEYDYWGQGTQVTVSS	low polyreactivity
QVQLVESGGGLVQAGGSLRLSCAASGSIFSFNAMGWYRQAPGKEREFVAAIFGVTRTYYADSVKGRFTISRDNAKNTVYLQMNSLKPEDTAVYYCAARPPYRRYSEPRFGYWGQGTQVTVSS	high polyreactivity
QVQLVESGGGLVQAGGSLRLSCAASGSIFSFNAMGWYRQAPGKERELVAVITQRGGSTYYADSVKGRFTISRDNAKNTVYLQMNSLKPEDTAVYYCAARTPRGYYYWGQGTQVTVSS	high polyreactivity
QVQLVESGGGLVQAGGSLRLSCAASGSIFSFYSMGWYRQAPGKERELVSGITWSGGSTYYADSVKGRFTISRDNAKNTVYLQMNSLKPEDTAVYYCAKTKWYYWYTSFPSVQSYDYWGQGTHVTVSS	high polyreactivity
QVQLVESGGGLVQAGGSLRLSCAASGSIFSFYTMGWYRQAPGKERELVASSTTYADSVKGRFTISRDNAKNTVYLQMNSLKPEDTAVYYCAAEYYSSITGWYYYWGQGTQVTVSS	low polyreactivity
QVQLVESGGGLVQAGGSLRLSCAASGSIFSGNAMGGYRQAPGKERELVAAISRTGTRTFYADSEKGRFTISRDNAKNTVYLQMNSLKPEDTAVYYCAADNPDGDGYDYWGQGTQVTVSS	high polyreactivity
QVQLVESGGGLVQAGGSLRLSCAASGSIFSGNAMGWYRPAPGKGRELVAGSSRRGGRTYYADSVKGRFTISRDNAKNTVYIPMNSLKPEDPAVYYCNKDVFGDTREYDYWGQGTQVTVSS	high polyreactivity
QVQLVESGGGLVQAGGSLRLSCAASGSIFSGNAMGWYRQAPGKERELVASINRSGGSTYYADSVKGRFTISRDNAKNTVYLLMNSLKPEDTAVYYCAARRVWLAGYDSWGQGTQVTVSS	low polyreactivity
QVQLVESGGGLVQAGGSLRLSCAASGSIFSGYAMGWYRQAPGKERELVAAINWTGDSTYYADSVKGRFTISRDNAKNTVYLQMNSLKPEDTAVYYCAAIRRQKGLWDYYYWGQGSQVTVSS	low polyreactivity

Sequence	polyreactivity (PSR sort gate)
QVQLVESGGGLVQAGGSLRLSCAASGSIFSINAMGWYRQAPGKERELVAAISWDGGSTYYADSVKGRFTISRDNAKYTVYLQKNSLKPEDTAVYYCNAAGYVPRNIFAGSRSLRYDYWGQGTQVTVSS	high polyreactivity
QVQLVESGGGLVQAGGSLRLSCAASGSIFSINAMGWYRQAPGKERELVAVISWIGGNTYYADSVKGRFTISRDNAKNTVYLQMNSLKPEDTAVYYCAVATGPVSYRRYYWGQGTQVTVSS	high polyreactivity
QVQLVESGGGLVQAGGSLRLSCAASGSIFSINARGWYRQAPGKERELVAAITYSTGSTYYADSVKGRFTISRDNAKNTVYLQMNSLKPEDTAVYYCAAVYKRTYLHSQTYGYYYWGQGTQVTVSS	high polyreactivity
QVQLVESGGGLVQAGGSLRLSCAASGSIFSINTMGWYRQAPGKERELVAAITRSGSGTYYADSVKGRFTISRDNAKNTVYLQMNSLKPEDTAVYYCAKPAGARLGYWGQGTQVTVSS	low polyreactivity
QVQLVESGGGLVQAGGSLRLSCAASGSIFSINTMVWYRLAPGKERELVAAISRTGGSTYYADSVKGRFTNSRDNAKNTVYLQMNSLKPEDTAVYYCGKDRRRSTYEYWGQCTQVTVSS	high polyreactivity
QVQLVESGGGLVQAGGSLRLSCAASGSIFSIYAMGWYRQAPGKERELVASITRSSGRTYYADSVKGRFTISRDNAKNTVYLQMNSLKPEDTAVYYCAKDYIPLALDADDYWGQGTQVTVSS	low polyreactivity
QVQLVESGGGLVQAGGSLRLSCAASGSIFSKNAIGWYRQAPGKERELVDAISASGASTYYADSVKGRFTISRDNEKNTVYLQMNSLKPEDTAVYYCNADVSGVSSYGRSYEFYYWGQGTQVTVSS	low polyreactivity
QVQLVESGGGLVQAGGSLRLSCAASGSIFSKNTMGWYRQAPGKEREFVARISVRGGSTYYADSVKGRFTISRDNAKNTVYLQMNSLKPEDTAVYYCNAAHTVTQNSRNSDYWGQGTQVTVSS	high polyreactivity
QVQLVESGGGLVQAGGSLRLSCAASGSIFSKYVMGWYRQAPGKEMELVASITSGGRTNYADSVKGRFTISRDNAKNTVYLQMNSLKPEDTAVYYCAARALKTWYRSGVDYWGQGTQVTVSS	low polyreactivity
QVQLVESGGGLVQAGGSLRLSCAASGSIFSLNAMGWYRQAPGKERELVAAINSGGTSTYYADSVKGRFTMSRDNAKNTVYLHMKSLKPEDTAVYYCAKRQRDYSSVFDVDYWGQGTQVTVSS	low polyreactivity
QVQLVESGGGLVQAGGSLRLSCAASGSIFSLYAMGCYIQAHGKERELVAAISRGGSTNYADSVKGRFTISRDNAKNTVYLQMNSLKPEDTAVDYCNAGFGVRRKHITFYTWYDYWGQGTQVTVSS	low polyreactivity
QVQLVESGGGLVQAGGSLRLSCAASGSIFSNYAMGGYRQAPGKERELVAAISRNGGSTSYADSVKGRFTISRDNAKNTVYLQMNSLKPEDTAVYYCAKRYKTAQYYYWGQGTQVTVSS	high polyreactivity
QVQLVESGGGLVQAGGSLRLSCAASGSIFSPNAMGWYRQAPGKERELVATISFSGGRTYYADSVKGRFTISRDNAKNTVYLQMNSLKPEDTAVYYCAKAYYYTDMDYWGQGTQVTVSS	low polyreactivity
QVQLVESGGGLVQAGGSLRLSCAASGSIFSPYAMGWYRQAPGKERELVAAIRWGGGGTYADSVKGRFTISRDNAKNTVYLQMNSLKPEDTAVYYCAARRRSRRGYDYWGQGTQVTVSS	high polyreactivity
QVQLVESGGGLVQAGGSLRLSCAASGSIFSPYAMGWYRQAPGKERELVAAISFRASTTYYADSVKGRFTISRDNAKNTVYLQMNSLKPEDTAVYYCAASPLYSWFWGLYDYWGQGTQVTVSS	low polyreactivity
QVQLVESGGGLVQAGGSLRLSCAASGSIFSPYAMGWYRQAPGKERELVDAISFRASTTYYADSVKGRFTISRDNAKNTVYLQMNSLKPEDTAVYYCAASPLYSWFWGLYDYWGQGTQVTVSS	low polyreactivity
QVQLVESGGGLVQAGGSLRLSCAASGSIFSQNAMGWYRQAPGKERELVASITYSGGSTYYADSVKGRFTISRDNAKNTVYFQMNSLKPEDTEVYYCAADVRYSSRFYYWGQGTQVTVSS	high polyreactivity
QVQLVESGGGLVQAGGSLRLSCAASGSIFSQYAMGCYREAPGKERELVAAISSSGDSTNYADSVKGRFTISRDNAKNTVYLQMNSLKPEDTGVYDCAADPYYFYIWYWWPSFDYWGQGTQVTVSS	low polyreactivity
QVQLVESGGGLVQAGGSLRLSCAASGSIFSQYAMGSYRQAPGKERELVAAITSGGRTYYADSVKGRFTISRDNAKNTVYLQMNSLKPEDTAVYYCAASRRGGGLDYWGQGTKVTVSS	high polyreactivity
QVQLVESGGGLVQAGGSLRLSCAASGSIFSQYAMGWYRQAPGKERELVAAISASGGRTYYADSVKGRFTISRDNAKNTVYLQMNSLKPEDTAVYYCNAAHGSNRYSFVNPFYYWGQGTQVTVSS	high polyreactivity
